Experiment [1] concerns the target T1, GFRα4 isoform a (GFRα4a), Fc fusion with 6 His (human).
T1 construct: the entry holds the whole fusion; also called GFR4α4a; immobilized GFRα4 isoform a
T1 chain: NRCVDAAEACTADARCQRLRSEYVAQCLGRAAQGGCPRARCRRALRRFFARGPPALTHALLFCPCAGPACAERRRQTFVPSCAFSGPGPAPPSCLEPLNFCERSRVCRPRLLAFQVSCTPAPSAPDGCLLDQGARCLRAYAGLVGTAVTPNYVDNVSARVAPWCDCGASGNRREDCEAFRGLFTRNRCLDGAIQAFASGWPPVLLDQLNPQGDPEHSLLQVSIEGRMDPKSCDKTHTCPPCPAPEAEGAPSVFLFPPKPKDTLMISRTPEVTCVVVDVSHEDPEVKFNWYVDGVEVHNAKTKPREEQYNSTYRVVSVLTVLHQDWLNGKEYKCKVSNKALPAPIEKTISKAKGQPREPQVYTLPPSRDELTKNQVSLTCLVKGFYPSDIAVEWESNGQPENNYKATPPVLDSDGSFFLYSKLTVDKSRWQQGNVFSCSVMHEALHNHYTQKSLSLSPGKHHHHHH
Nature of the experiment: phage ELISA, immobilized GFRα4a; first token of the cell. The text has this: (§1) To perform these ELISAs, the GFRα4a isoform comprising a portion of GFRα4a (Asn24 -Ser245, UniProt accession #Q9GZZ7-2) was used, followed by a Factor Xa cleavage site/linker, a portion of optimized IgG1 Fc domain (Pro100-Lys330), and 6 His residues for purification. The GFRα4b isoform comprised a portion of GFRα4b (Asn24-Va1274, UniProt #Q9GZZ7-1), followed by a TEV cleavage site linker, and a portion of human IgG1 Fc domain (Asp104-Lys330).

Experiment [2] concerns the target T2, GFRα4 isoform b (GFRα4b), Fc fusion (human).
T2 construct: the entry holds the whole fusion; also called GFR4α4b; GFRα4-Fc
Briefly: phage ELISA, immobilized GFRα4b; second token of the cell.
From the text: as §1
Background: ELISA stands for enzyme-linked immunosorbent assay.

T2 sequence (chain, as listed by the source limits assumed): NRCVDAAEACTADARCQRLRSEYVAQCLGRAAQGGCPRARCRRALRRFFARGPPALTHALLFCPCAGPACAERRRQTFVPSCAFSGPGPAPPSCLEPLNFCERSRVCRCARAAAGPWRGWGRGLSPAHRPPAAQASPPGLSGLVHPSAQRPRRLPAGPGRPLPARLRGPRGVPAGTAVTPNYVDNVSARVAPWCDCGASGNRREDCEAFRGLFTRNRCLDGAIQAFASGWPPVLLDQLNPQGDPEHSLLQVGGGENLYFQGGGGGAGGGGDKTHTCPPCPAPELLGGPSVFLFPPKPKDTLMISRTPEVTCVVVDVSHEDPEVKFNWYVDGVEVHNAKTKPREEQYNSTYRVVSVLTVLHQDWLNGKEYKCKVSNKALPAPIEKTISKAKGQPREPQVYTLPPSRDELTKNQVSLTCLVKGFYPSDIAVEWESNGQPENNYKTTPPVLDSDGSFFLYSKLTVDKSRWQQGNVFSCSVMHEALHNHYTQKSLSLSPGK

B1: 12.H2m1.L1m1 (scFv)
scFv: QFVLTQSPSASASLGASVKLTCTLSSAHKTYTIDWYQQQPEKGPRYLMQVKSDGSYTKGTGVPDRFSGSSSGADRYLTISSLQSEDEADYYCGADDNGGYVFGGGTQLTVTGGGSSRSSSSGGGGSGGGGEQSVKESGGGLVQPGGSLRLSCAASGFTLSRHALTWVRQAPGKGLEWIGAIDNAGTTYYASWAKSRFTISRNTDLHTVYLQMNSLRAEDTAVYFCARVFYDINSGYYLDGMDLWGPGTLVTVSS
notes: pIII not in the entry; order Vλ-linker-VH; The printed entry has an E before QSVKE of the VH; also called scFv 12
Consider B1, for which the binding result in experiment [1] and in experiment [2] was “binds” throughout.

B2: 25.H1.L1m3 (scFv)
scFv: QLVLTQSPSASASLGASVKLTCTLSSAHKTYTIDWYQQQPEKGPRYLMQVKSDGSYTKGTGVPDRFSGSSSGADRYLTISSLQSEDEADYYCGADDNGGYVFGGGTQLTVLGGGSSRSSSSGGGGSGGGGQVQLQESGPGLVKPSETLSLTCAVSGYSISRHALTWIRQPPGKGLEWIGAIDNAGTTYYASWAKSRVTISVDTSKNQFSLKLSSVTAADTAVYYCARVFYDINSGYYLDGMDLWGPGTLVTVSS
notes: pIII not in the entry; order Vλ-linker-VH; also called scFv 25
As to B2, the binding result in experiment [1] and in experiment [2] was “binds” each time.

B3: 14.H1.L1m1 (scFv)
scFv: QFVLTQSPSASASLGASVKLTCTLSSAHKTYTIDWYQQQPEKGPRYLMQVKSDGSYTKGTGVPDRFSGSSSGADRYLTISSLQSEDEADYYCGADDNGGYVFGGGTQLTVTGGGSSRSSSSGGGGSGGGGQVQLQESGPGLVKPSETLSLTCAVSGYSISRHALTWIRQPPGKGLEWIGAIDNAGTTYYASWAKSRVTISVDTSKNQFSLKLSSVTAADTAVYYCARVFYDINSGYYLDGMDLWGPGTLVTVSS
notes: pIII not in the entry; order Vλ-linker-VH; also called scFv 14
As for B3, the binding result in experiment [1] and in experiment [2] was “binds” in each case.

B4: 22.H1.L1m2 (scFv)
scFv: QFVLTQSPSASASLGASVKLTCTLSSAHKTYTIDWHQQQPEKGPRYLMQVKSDGSYTKGTGIPDRFSGSSSGAERYLTISSLQSEDEADYYCGADDNGGYVFGGGTQLTVLGGGSSRSSSSGGGGSGGGGQVQLQESGPGLVKPSETLSLTCAVSGYSISRHALTWIRQPPGKGLEWIGAIDNAGTTYYASWAKSRVTISVDTSKNQFSLKLSSVTAADTAVYYCARVFYDINSGYYLDGMDLWGPGTLVTVSS
notes: pIII not in the entry; order Vλ-linker-VH; also called scFv 22
B4: the binding result in experiment [1] and in experiment [2] was “no binding” throughout.

B5: 26.H1.L1m4 (scFv)
scFv: QLVLTQSPSASASLGASVKLTCTLSSAHKTYTIAWHQQQPEKGPRYLMQVKSDGSYTKGTGVPDRFSGSSSGADRYLTISSLQSEDEADYYCGADDNGGYVFGGGTQLTVLGGGSSRSSSSGGGGSGGGGQVQLQESGPGLVKPSETLSLTCAVSGYSISRHALTWIRQPPGKGLEWIGAIDNAGTTYYASWAKSRVTISVDTSKNQFSLKLSSVTAADTAVYYCARVFYDINSGYYLDGMDLWGPGTLVTVSS
notes: pIII not in the entry; order Vλ-linker-VH; also called scFv 26
For B5, the binding result in experiment [1] and in experiment [2] was “no binding” throughout.

B6: 17.H1.L3m2 (scFv)
scFv: QFVLTQPASVSGSPGQSITISCTLSSAHKTYTIDWYQQHPGKAPKLMIQVKSDGSYTKGTGVSNRFSGSSSGADRYLTISGLQAEDEADYYCGADDNGGYVFGGGTQLTVLGGGSSRSSSSGGGGSGGGGQVQLQESGPGLVKPSETLSLTCAVSGYSISRHALTWIRQPPGKGLEWIGAIDNAGTTYYASWAKSRVTISVDTSKNQFSLKLSSVTAADTAVYYCARVFYDINSGYYLDGMDLWGPGTLVTVSS
notes: pIII not in the entry; order Vλ-linker-VH; also called scFv 17
In the case of B6, the binding result in experiment [2] is reported as “binds”.

B7: 10.H2.L1m1 (scFv)
scFv: QFVLTQSPSASASLGASVKLTCTLSSAHKTYTIDWYQQQPEKGPRYLMQVKSDGSYTKGTGVPDRFSGSSSGADRYLTISSLQSEDEADYYCGADDNGGYVFGGGTQLTVTGGGSSRSSSSGGGGSGGGGEVQLVESGGGLVQPGGSLRLSCAASGFTFSRHALTWVRQAPGKGLEWVSAIDNAGTTYYASWAKSRFTISRDNAKNSLYLQMNSLRAEDTAVYYCARVFYDINSGYYLDGMDLWGPGTLVTVSS
notes: pIII not in the entry; order Vλ-linker-VH; also called scFv 10
As to B7, the binding result in experiment [1] and in experiment [2] was “binds” in each case.

For the origin of these results see patent publication US20210095036A1 (University of Pennsylvania, published 2021).
